Target: T1, FITC-HSA-MORF2 (human serum albumin grafted with multiple copies of morpholino MORF2, FITC-labelled) (human, UniProt P02768 25-609, a fraction of the amino groups converted with SM-(PEG)x to maleimido groups and carrying MORF2 via thioether bonds; FITC label)
T1 construct: mature; also called HSA-(MORF2)x; Nanoconjugate 2A
Assay: confocal microscopy on CD20-expressing Raji cells, without Cy5-Fab′RTX-MORF1
From the text: Thus, we conducted in vitro confocal microscopy study, using CD20-expressing human NHL Raji B cell line (FIG. 7).

- binding result: no binding
B1: CD20 on human Burkitt's B-cell non-Hodgkin's lymphoma Raji cells (receptor, UniProt P11836 1-297, looked up)
chain: MTTPRNSVNGTFPAEPMKGPIAMQSGPKPLFRRMSSLVGPTQSFFMRESKTLGAVQIMNGLFHIALGGLLMIPAGIYAPICVTVWYPLWGGIMYIISGSLLAATEKNSRKCLVKGKMIMNSLSLFAAISGMILSIMDILNIKISHFLKMESLNFIRAHTPYINIYNCEPANPSEKNSPSTQYCYSIQSLFLGILSVMLIFAFFQELVIAGIVENEWKRTCSRPKSNIVLLSAEEKKEQTIEIKEEVVGLTETSSQPKNEEDIEIIPIQEEEEEETETNFPEPPQDQESSPIENDSSP
notes: whole, on cells; also called CD20 antigen; CD20 receptor
